# US20060257383A1
# Target: active MMP-2 (Calbiochem) (UniProt P08253)
# Test: cell-based or functional assay
# UniProt P08253, sequence (P08253 110-660 limits assumed): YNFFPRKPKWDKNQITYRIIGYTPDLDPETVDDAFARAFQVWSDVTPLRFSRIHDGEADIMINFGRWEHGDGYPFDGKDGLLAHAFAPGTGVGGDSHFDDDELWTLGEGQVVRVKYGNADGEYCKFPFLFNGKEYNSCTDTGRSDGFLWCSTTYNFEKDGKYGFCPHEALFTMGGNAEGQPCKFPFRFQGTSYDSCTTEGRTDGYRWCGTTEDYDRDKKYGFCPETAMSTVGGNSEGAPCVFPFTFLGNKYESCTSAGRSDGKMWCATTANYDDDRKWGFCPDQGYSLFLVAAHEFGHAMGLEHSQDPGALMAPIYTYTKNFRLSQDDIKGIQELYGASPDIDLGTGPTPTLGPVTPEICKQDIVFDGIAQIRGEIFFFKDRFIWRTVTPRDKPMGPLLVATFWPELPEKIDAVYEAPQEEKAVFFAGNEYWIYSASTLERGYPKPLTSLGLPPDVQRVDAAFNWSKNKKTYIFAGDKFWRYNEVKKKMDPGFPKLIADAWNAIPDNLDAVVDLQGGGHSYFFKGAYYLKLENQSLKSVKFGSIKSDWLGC
substance,measurement,value
"TIMP-1-HA (exogenous human TIMP-1 with a C-terminal HA epitope tag, secreted by stable NIKS clone INV TIMP-1-HA:28) (from UniProt P01033 24-207)","inhibition in MMP-2 protease activity compared to untransfected NIKS (EnzChek Gelatinase/Collagenase Assay, DQ gelatin)",< 40%
